Experiment in all cases: two-hybrid library CCmax;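 further: natural log of median RNA to DNA barcode read ratio; higher means stronger binding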
One test has as its target T1, 4H816-AA.
T1 chain: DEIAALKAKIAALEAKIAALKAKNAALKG

For another test, the target named is T2, 4H87-AA.
T2 chain: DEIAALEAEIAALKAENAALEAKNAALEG
To be noted: mean of both orientations.

The target in another test is T3, 4H656-AA.
T3 chain: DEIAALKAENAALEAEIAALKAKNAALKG
As to conditions: mean of both orientations.

The target of the next test is T4, 4H675-AA.
T4 chain: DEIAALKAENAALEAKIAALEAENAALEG
As to conditions: mean of both orientations.

The target of another test is T5, 4H391-AA.
T5 chain: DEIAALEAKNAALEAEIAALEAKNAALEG
As to conditions: mean of both orientations.

The target of a further test is T6, 4H3628-AA.
T6 chain: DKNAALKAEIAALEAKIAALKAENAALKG
To be noted: mean of both orientations.

Another test addresses T7, 4H971-AA.
T7 chain: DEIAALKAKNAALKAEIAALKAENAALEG
As to conditions: mean of both orientations.

The next test deals with T8, 4H497-AA.
T8 chain: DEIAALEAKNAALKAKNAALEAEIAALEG
To be noted: mean of both orientations.

The target in another test is T9, 4H3446-AA.
T9 chain: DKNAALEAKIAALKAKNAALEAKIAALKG

The target of the next test is T10, 4H3666-AA.
T10 chain: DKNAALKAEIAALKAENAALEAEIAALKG
To be noted: mean of both orientations.

For a further test, the target named is T11, 4H3920-AA.
T11 chain: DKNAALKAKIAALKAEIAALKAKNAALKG
To be noted: mean of both orientations.

In another test the target is T12, 4H3591-AA.
T12 chain: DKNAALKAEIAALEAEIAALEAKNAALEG
To be noted: mean of both orientations.

For another test, the target named is T13, 4H3939-AA.
T13 chain: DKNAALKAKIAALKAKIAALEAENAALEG
To be noted: mean of both orientations.

The target of a further test is T14, 4H478-AA.
T14 chain: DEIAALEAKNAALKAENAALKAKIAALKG
As to conditions: mean of both orientations.

The next test concerns the target T15, 4H428-AA.
T15 chain: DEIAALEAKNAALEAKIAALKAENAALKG
To be noted: mean of both orientations.

A further test deals with T16, 4H3709-AA.
T16 chain: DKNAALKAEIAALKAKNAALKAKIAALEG
To be noted: mean of both orientations.

The next test has as its target T17, 4H3427-AA.
T17 chain: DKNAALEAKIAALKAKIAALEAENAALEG
As to conditions: mean of both orientations.

The target in a further test is T18, 4H993-AA.
T18 chain: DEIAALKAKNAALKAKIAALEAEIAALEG
To be noted: mean of both orientations.

For the next test, the target named is T19, 4H3606-AA.
T19 chain: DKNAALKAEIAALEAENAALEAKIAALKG
To be noted: mean of both orientations.

A further test concerns the target T20, 4H881-AA.
T20 chain: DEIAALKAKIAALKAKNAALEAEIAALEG
To be noted: mean of both orientations.

Another test concerns the target T21, 4H717-AA.
T21 chain: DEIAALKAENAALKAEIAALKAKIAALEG
To be noted: mean of both orientations.

The target in another test is T22, 4H2754-AA.
T22 chain: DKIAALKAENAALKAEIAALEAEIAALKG
To be noted: mean of both orientations.

For the next test, the target named is T23, 4H2949-AA.
T23 chain: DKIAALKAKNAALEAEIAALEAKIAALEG
As to conditions: mean of both orientations.

The target of the next test is T24, 4H3343-AA.
T24 chain: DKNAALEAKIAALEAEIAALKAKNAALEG
As to conditions: mean of both orientations.

A further test addresses T25, 4H2837-AA.
T25 chain: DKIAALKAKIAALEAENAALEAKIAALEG
To be noted: mean of both orientations.

The target in a further test is T26, 4H429-AA.
T26 chain: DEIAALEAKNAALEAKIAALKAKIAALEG
As to conditions: mean of both orientations.

In a further test the target is T27, 4H3112-AA.
T27 chain: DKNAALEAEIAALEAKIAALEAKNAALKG
To be noted: mean of both orientations.

The next test deals with T28, 4H566-AA.
T28 chain: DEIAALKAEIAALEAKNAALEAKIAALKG
As to conditions: mean of both orientations.

In a further test the target is T29, 4H3921-AA.
T29 chain: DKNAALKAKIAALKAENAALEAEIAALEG
As to conditions: mean of both orientations.

Another test addresses T30, 4H794-AA.
T30 chain: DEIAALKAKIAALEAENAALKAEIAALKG
To be noted: mean of both orientations.

The next test concerns the target T31, 4H48-AA.
T31 chain: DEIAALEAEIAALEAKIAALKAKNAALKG
As to conditions: mean of both orientations.

Another test deals with T32, 4H780-AA.
T32 chain: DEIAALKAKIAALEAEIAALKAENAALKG
As to conditions: mean of both orientations.

In another test the target is T33, 4H454-AA.
T33 chain: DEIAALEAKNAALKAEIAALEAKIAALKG
As to conditions: mean of both orientations.

A further test addresses T34, 4H678-AA.
T34 chain: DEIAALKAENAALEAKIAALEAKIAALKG
To be noted: mean of both orientations.

The target in another test is T35, 4H2944-AA.
T35 chain: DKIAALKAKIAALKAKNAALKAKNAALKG
As to conditions: mean of both orientations.

The next test concerns the target T36, 4H317-AA.
T36 chain: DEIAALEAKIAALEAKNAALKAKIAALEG
To be noted: mean of both orientations.

The target of a further test is T37, 4H605-AA.
T37 chain: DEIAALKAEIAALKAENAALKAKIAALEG
As to conditions: mean of both orientations.

Another test concerns the target T38, 4H3627-AA.
T38 chain: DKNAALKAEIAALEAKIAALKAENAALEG
To be noted: mean of both orientations.

A further test has as its target T39, 4H2729-AA.
T39 chain: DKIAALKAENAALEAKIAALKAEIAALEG
As to conditions: mean of both orientations.

The target in a further test is T40, 4H2883-AA.
T40 chain: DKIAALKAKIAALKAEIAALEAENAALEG
As to conditions: mean of both orientations.

The target in another test is T41, 4H342-AA.
T41 chain: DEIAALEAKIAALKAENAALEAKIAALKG
To be noted: mean of both orientations.

For another test, the target named is T42, 4H2642-AA.
T42 chain: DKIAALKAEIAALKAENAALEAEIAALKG

For the next test, the target named is T43, 4H335-AA.
T43 chain: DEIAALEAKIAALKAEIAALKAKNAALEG
To be noted: mean of both orientations.

A further test has as its target T44, 4H906-AA.
T44 chain: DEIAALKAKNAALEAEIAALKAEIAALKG
To be noted: mean of both orientations.

A further test addresses T45, 4H3655-AA.
T45 chain: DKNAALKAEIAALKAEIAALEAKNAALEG
To be noted: mean of both orientations.

For a further test, the target named is T46, 4H3844-AA.
T46 chain: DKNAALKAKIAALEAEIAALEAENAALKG
To be noted: mean of both orientations.

In paper PMC10397247 one finds interaction score data, which are given here for three molecules.

For DEIAALKAKIAALEAKIAALKAKNAALKG [4H816-AA], the interaction score with 4H816-AA was 1.02; with 4H87-AA it was 0.567.

On to DKNAALEAKIAALKAKNAALEAKIAALKG [4H3446-AA], for which the interaction score with 4H656-AA is -0.701; with 4H675-AA, -0.821; with 4H391-AA it was 0.726; in the test with 4H3628-AA, -1.96; with 4H971-AA, -1.14; with 4H497-AA, -1.57. Also, the interaction score was -0.619 with 4H3446-AA; 0.18 in the test with 4H3666-AA; -1.52 in the test with 4H3920-AA; -0.816 with 4H3591-AA; -1.83 in the test with 4H3939-AA; -1.66 with 4H478-AA. In addition, the interaction score in the test with 4H428-AA was -0.892; with 4H3709-AA, -0.0647.

In the case of DKIAALKAEIAALKAENAALEAEIAALKG [4H2642-AA], the interaction score with 4H3427-AA was -1.25; with 4H993-AA it was 1.73; in the test with 4H3606-AA, -0.298; with 4H881-AA it was 0.64; with 4H717-AA, -1.13; with 4H2754-AA it was -1.08. Besides, the interaction score was -0.263 with 4H2949-AA; -1.7 with 4H3343-AA; -1 with 4H2837-AA; -0.542 with 4H429-AA; -1.11 in the test with 4H3112-AA; 1.3 with 4H566-AA. Moreover, the interaction score with 4H3921-AA was -1.11; with 4H794-AA, 0.96; with 4H48-AA, -0.661; with 4H780-AA it was -1.24; in the test with 4H454-AA it was 0.982; with 4H678-AA it was -1.06. The interaction score with 4H2944-AA is 0.299; with 4H317-AA, 1.06; with 4H605-AA it was 1.36; in the test with 4H3627-AA, -1.58; with 4H2729-AA, -0.868; with 4H2883-AA, -0.642. The interaction score in the test with 4H342-AA was 1.85; in the test with 4H2642-AA, 2.07; with 4H335-AA, -1.02; with 4H906-AA, -1.72; with 4H3655-AA, -1.24; with 4H3844-AA, -1.28.
